Measured values published in publication PMC11931385, “Structural and functional analysis of cancer-associated missense variants in the retinoblastoma protein pocket domain” (The Journal of Biological Chemistry, 2025).
Residue numbers refer to the chain shown, from its start. In names and notes the source's numbering stands. No end group written: not given here. TMR = tetramethyl rhodamine dye

B1: TMR-E2F1^TD, peptide of the E2F1 transactivation domain (peptide)
peptide: {TMR}-GEGIRDLFDCDFGDLTPLD
notes: also called E2F^TD; source: synthetic peptide, bought: GenScript
B2: TMR-E7^LxCxE, LxCxE peptide of the E7 oncoprotein from HPV (peptide)
peptide: DLYCYEQLN
modifications: also: TMR label, position not given here
notes: source: synthetic peptide, bought: GenScript

Columns and labels:
Experiment in all cases: fluorescence polarisation; 37 °C, after the 25 °C reading ramped over 7 min to 37 °C and 2 min incubation; unlabeled Rb^P against 1.5 nM TMR-E2F1^TD or 7.5 nM TMR-E7^LxCxE; 25 mM Tris pH 8.0, 200 mM NaCl, 1 mM DTT, 0.1% Tween-20; apparent Kd
Details in all cases: both partners purified
[1] = molecular target: T1, Rb^P Q444L (human, UniProt P06400 380-788, Q444L)
T1 construct: also called variant 3
T1 sequence (looked up): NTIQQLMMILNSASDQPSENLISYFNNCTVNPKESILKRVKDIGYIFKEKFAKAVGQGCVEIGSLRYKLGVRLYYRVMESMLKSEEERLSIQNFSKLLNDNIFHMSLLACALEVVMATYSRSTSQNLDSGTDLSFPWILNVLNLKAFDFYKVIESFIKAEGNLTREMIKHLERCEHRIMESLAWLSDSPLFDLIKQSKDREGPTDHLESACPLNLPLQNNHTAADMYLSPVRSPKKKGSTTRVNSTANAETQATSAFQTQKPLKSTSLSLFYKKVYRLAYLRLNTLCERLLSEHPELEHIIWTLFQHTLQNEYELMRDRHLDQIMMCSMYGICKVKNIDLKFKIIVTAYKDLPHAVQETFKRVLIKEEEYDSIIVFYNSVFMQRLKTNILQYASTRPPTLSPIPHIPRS

[2] = molecular target: T2, Rb^P A490T (human, UniProt P06400 380-788, A490T)
T2 construct: also called variant 16
T2 sequence (looked up): T1 sequence (looked up) with L65Q, A111T

[3] = molecular target: T3, Rb^P K462T (human, UniProt P06400 380-788, K462T)
T3 construct: also called variant 9
T3 sequence (looked up): T1 sequence (looked up) with L65Q, K83T

[4] = molecular target: T4, Rb^P T738I (human, UniProt P06400 380-788, T738I)
T4 construct: also called variant 67
T4 sequence (looked up): T1 sequence (looked up) with L65Q, T359I

[5] = molecular target: T5, Rb^P E539D (human, UniProt P06400 380-788, E539D)
T5 construct: also called variant 24
T5 sequence (looked up): T1 sequence (looked up) with L65Q, E160D

Binder | Kd [1] | Kd [2] | Kd [3] | Kd [4] | Kd [5]
B1 | 30 nM | 115 nM | 51 nM | 179 nM | 104 nM
B2 | 11 nM | 33 nM | 16 nM | 151 nM | 19 nM
